Assay results as given in the supplement of paper PMC10567573.

B1: ZNF8 (parent)
chain: SLGRHKRTHTGEKPYTCSVCGKSF
B2: TEKT4 (parent)
chain: SEVEELNMSLTALREKLLEAEQSL

Variants of: B1
Experiment: protein stability index of a GFP-peptide fusion (GPS, HEK-293T) (PSI 1-6); higher = more stable
Settings: c terminus: a fixed tail appended
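Note: lentivirally expressed fusions sorted by FACS into six bins by GFP to DsRed ratio, PSI derived from sequencing read proportions per bin multiplied by bin number.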

Protein stability index: each site, then its substitutions
K22: C 2.54; E 3.66; V 2.48; F 2.54; H 3.12; I 2.05; Q 2.47; T 3.37; S 2.34; L 2.36; D 3.01; P 3.29; M 2.07; R 3.09; A 2.82; N 2.87; G 2.19; Y 3.41
G21: R 3.03; H 2.78; M 2.71; W 1.88; L 1.9; F 2.5; T 3.14; S 2.94; V 2.17; A 2.35; Q 2.59; C 2; Y 1.92; E 2.1; I 2.01; P 3.12; N 2.98; D 3.11; K 3.36
S23: C 2.48; F 2.38; R 3.2; V 1.95; N 2.9; E 3.03; T 3.32; H 3.12; K 3.3; D 3.3; I 2.8; Y 2.79; A 2.5; L 2.69; Q 2.25; W 2.12; G 2.94; M 2.18; P 2.39
C20: A 3.05; E 3.78; G 3.18; P 3.36; L 2.45; I 2.94; T 3.44; W 2.4; Y 2.94; N 3.51; H 2.79; S 4; R 2.98; Q 3.42; K 3.23; D 3.99; M 3.36; V 3.13; F 2.47
V19: Y 2.64; N 3.47; A 2.36; D 3.5; E 2.42; F 2.67; R 3.15; L 2.29; W 1.88; G 2.7; K 2.93; I 2.79; C 3.68; S 3.04; H 3.06; T 2.75; P 3.06; Q 3.45; M 2.7
F24: N 3.27; H 4.04; Q 2.69; A 3.1; W 2.93; Y 2.45; V 3.27; K 3.62; I 2.92; M 2.85; R 2.92; C 4.13; L 3.02; T 2.24; S 3.44; D 3.83; P 3.5
C17: N 3.78; T 3.19; S 3.3; Y 2.77; W 2.81; Q 3.76; V 3.58; P 3.17; R 2.75
S18: P 3; T 2.68; M 2.58; Q 3.16; Y 2.71; K 2.98; R 2.54; A 2.94; N 2.02; D 2.76; E 3.38; L 2.44; F 2.08; I 2.34; C 2.63; V 2.83; G 2.83; H 2.26; W 2.84

Variants of: B2
Experiment: as above
Settings: c terminus: a fixed tail appended

Protein stability index, by site and new letter:
E2: G 2.31; C 2.66; A 2.84; L 2.72; I 2.42; D 3.06; F 1.76; H 2.3; K 2.19
S1: K 2.23; F 2.31; W 2.26; C 2.63; Q 3.52; T 2.6; P 2.94; A 3.43; I 2.37; V 2.76; G 3.25; N 2.2; R 2.19; L 2.96; E 3.28; D 3.64; Y 2.31; M 2.27; H 3.19
